Results on two molecules are retold here after article PMC12233901, “Resolving the APN controversy in PEDV infection: Comparative kinetic characterization through single-virus tracking” (PLOS Pathogens, 2025).

What is called Kd is the equilibrium constant for the complex coming apart. Low values mean tighter binding, high ones weaker binding.

The target of this assay is T1, porcine aminopeptidase N (pAPN) fused with a hFc tag (porcine, UniProt P15145).
T1 construct: also called porcine APN; source: HEK293T cell expression system, expressed and purified
T1 sequence: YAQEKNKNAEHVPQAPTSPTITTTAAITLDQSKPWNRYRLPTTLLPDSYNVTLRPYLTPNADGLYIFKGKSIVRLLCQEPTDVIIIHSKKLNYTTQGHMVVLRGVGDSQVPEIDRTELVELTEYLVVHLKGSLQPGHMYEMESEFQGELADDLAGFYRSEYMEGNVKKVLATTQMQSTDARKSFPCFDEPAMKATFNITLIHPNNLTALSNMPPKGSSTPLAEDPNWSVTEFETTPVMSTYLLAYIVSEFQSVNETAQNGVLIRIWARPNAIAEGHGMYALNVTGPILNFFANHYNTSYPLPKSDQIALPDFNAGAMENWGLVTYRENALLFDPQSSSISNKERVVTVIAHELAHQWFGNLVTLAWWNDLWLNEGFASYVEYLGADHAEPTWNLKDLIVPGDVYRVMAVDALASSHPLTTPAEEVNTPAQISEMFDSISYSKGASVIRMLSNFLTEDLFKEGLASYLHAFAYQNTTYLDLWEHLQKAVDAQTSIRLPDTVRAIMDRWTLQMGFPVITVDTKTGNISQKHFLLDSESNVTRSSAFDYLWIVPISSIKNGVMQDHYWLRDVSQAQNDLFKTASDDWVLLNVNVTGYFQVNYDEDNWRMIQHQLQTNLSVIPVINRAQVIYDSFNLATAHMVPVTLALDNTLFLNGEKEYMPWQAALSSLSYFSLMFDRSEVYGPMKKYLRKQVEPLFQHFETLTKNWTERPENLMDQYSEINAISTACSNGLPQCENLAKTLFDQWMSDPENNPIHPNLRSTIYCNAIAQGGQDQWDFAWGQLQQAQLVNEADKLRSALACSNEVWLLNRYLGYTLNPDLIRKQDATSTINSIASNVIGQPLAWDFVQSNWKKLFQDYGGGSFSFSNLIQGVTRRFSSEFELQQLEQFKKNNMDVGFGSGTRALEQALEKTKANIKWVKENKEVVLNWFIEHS
Put plainly: SPR; […]; Biacore 8K, room temperature. The note with it: both partners purified. In general terms: SPR reads the build-up and loss of mass on a sensor chip optically.

B1: PEDV S1 protein with a C-terminal His tag (domain or fragment)
chain: CQSTTNFRRFFSKFNVQAPAVVVLGGYLPSMNSSSWYCGTGIETASGVHGIFLSYIDSGQGFEIGISQEPFDPSGYQLYLHKATNGNTNAIARLRICQFPDNKTLGPTVNDVTTGRNCLFNKAIPAYMRDGKDIVVGITWDNDRVTVFADKIYHFYLKNDWSRVATRCYNRRSCAMQYVYTPTYYMLNVTSAGEDGIYYEPCTANCTGYAANVFATDSNGHIPEGFSFNNWFLLSNDSTLLHGKVVSNQPLLVNCLLAIPKIYGLGQFFSFNHTMDGVCNGAAVDRAPEALRFNINDTSVILAEGSIVLHTALGTNLSFVCSNSSDPHLAIFAIPLGATEVPYYCFLKVDTYNSTVYKFLAVLPPTVREIVITKYGDVYVNGFGYLHLGLLDAVTINFTGHGTDDDVSGFWTIASTNFVDALIEVQGTSIQRILYCDDPVSQLKCSQVAFDLDDGFYPISSRNLLSHEQPISFVTLPSFNDHSFVNITVSAAFGGLSSANLVASDTTINGFSSFCVDTRQFTITLFYNVTNSYGYVSKSQDSNCPFTLQSVNDYLSFSKFCVSTSLLAGACTIDLFGYPAFGSGVKLTSLYFQFTKGELITGTPKPLEGITDVSFMTLDVCTKYTIYGFKGEGIITLTNSSILAGVYYTSDSGQLLAFKNVTSGAVYSVTPCSFSEQAAYVNDDIVGVISSLSNSTFNNTRELPGFFYH
For the molecule B1, the dissociation constant (Kd) worked out at 47.5 µM.

B2: TGEV S1 protein with a C-terminal His tag (domain or fragment)
chain: IGNHWNLIETFLLNYSSRLPPNSDAVLGDYFPTVQPWFNCIRNNSNDLYVTLENLKALYWDYAIENITSNHKQRLNVVVNGYPYSITVTTTRNFNSAEGAIICICKGSPPTTTTESSLTCNWGSECRLNHKFPICPSNSEANCGNMLYGLQWFADAVVAYLHGASYRISFENQWSGTVTLGDMRATTLETAGTLVDLWWFNPVYDVSYYRVNNKNGTTVVSNCTDQCASYVANVFTTQPGGFIPSDFSFNNWFLLTNSSTLVSGKLVTKQPLLVNCLWPVPSFEEAASTFCFEGAGFDQCNGAVLNNTVDVIRFNLNFTTNVQSGKGATVFSLNTTGGVTLEISCYNDTVSDSSFSSYGEMPFGVTDGPRYCYVLYNGTALKYLGTLPPVVKEIAISKWGHFYINGYNFFSTFPIDCISFNLTTGDSDVFWTIAYTSYTEALVQVENTAITKVTYCNSYVNNIKCSQLTANLNNGFYPVSSSEVGLVNKSVVLLPSFYTHTIVNITIGLGMKRSGYGQPIASTLSNITLPMQDDNTDVYCIRSDQFSVYVHSTCKSALWDNVFKRNCTDVLDATAVIKTGTCPFSFAKLNNYLTFNKFCLSLSPVGANCKFDVAARTRTNDQVVRSLYVIYEEGDNIVGVPSDNSGLHDLSVLHLDSCTDYNIYGRTGVGIIRQTNRTLLSGLYYTSLSGDLLGFKNVSDGVIYSVTPCDVIAQAAVIDGTIVGAITSINSELLGLTHWTTTPNFYYY
In the case of B2, the Kd is 0.392 µM.
